One may read the Kd as the free concentration of one partner at which half of the binding sites on the other are occupied at equilibrium, for simple one-to-one binding. A lower Kd goes with higher affinity. What is called stoichiometry N is the number of molecules, sites or subunits per partner or assembly.

Residue numbers refer to the chain shown, from its start.

5 molecules from article PMC4164784, “4E-BPs require non-canonical 4E-binding motifs and a lateral surface of eIF4E to repress translation” (Nature Communications, 2014) can be followed below.

In assay [1] the target is T1, eIF4E (residues 69–248) II-AA, purified (Drosophila melanogaster, UniProt P48598-2 69-248, Ile96 to Ala (II-AA) | Ile112 to Ala (II-AA)).
T1 construct: eIF4E, Drosophila melanogaster, residues 69–248; also called eIF4E (II-AA); not shown: His6, N-terminal, cleaved
T1 sequence (looked up): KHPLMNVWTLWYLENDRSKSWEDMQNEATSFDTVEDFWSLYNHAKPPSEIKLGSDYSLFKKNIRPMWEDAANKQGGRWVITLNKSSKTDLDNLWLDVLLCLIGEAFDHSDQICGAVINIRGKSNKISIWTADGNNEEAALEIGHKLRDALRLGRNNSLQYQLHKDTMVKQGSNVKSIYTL
In words: ITC; VP-ITC, 20 °C; eIF4E (69–248, WT or mutant, 1–20 μM) in the cell, tenfold concentrated GB1-stabilized peptides titrated in; 20 mM Na-phosphate pH 7.0, 150 mM NaCl; one-site binding model. Conditions: both partners purified. On the technique in general: In ITC the heat of successive injections is recorded.

For assay [2], the target named is T2, eIF4E (residues 69–248), purified (Drosophila melanogaster, UniProt P48598-2 69-248).
T2 construct: eIF4E, Drosophila melanogaster, residues 69–248; the methods say the tag was cleaved with HRV3C; also called truncated eIF4E; eIF4E trunc; not shown: His6, N-terminal, cleaved
T2 sequence (looked up): T1 sequence (looked up) with A28I, A44I
The assay is described as above. Conditions: both partners purified.

For assay [3], the target named is T3, SHN-eIF4E (full length, WT) (Drosophila melanogaster, UniProt P48598-2 1-248).
T3 construct: eIF4E, Drosophila melanogaster; also called SHN-tagged eIF4E; SNH-tagged eIF4E; not shown: Strep-NusA-His (SHN), N-terminal, kept
T3 sequence (looked up): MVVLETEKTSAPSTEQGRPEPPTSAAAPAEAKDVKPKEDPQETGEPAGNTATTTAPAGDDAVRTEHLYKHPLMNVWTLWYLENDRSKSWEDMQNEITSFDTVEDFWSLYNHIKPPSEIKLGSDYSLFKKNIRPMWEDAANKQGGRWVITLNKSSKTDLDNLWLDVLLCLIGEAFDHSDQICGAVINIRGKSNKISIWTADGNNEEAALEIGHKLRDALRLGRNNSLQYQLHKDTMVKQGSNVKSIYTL
In words: pull-down; 'kinetic assay': 1 μM purified SHN-eIF4E–GST-eIF4G complex prebound to Strep-Tactin beads, challenged with 5 μM (CUP, 4E-T) or 10 μM (Thor, eIF4G) competitor for the indicated times; 4 °C. Conditions: both partners purified.

Assay [4] deals with firefly luciferase (F-Luc) reporter in S2 cells. In words: Translation repression assay, F-Luc reporter in S2 cells. It counts as cell-based, Drosophila melanogaster. As to conditions: coexpression (HA-CUP 1–402 0.05–0.2 μg, HA-Thor 0.1–0.5 μg plasmid; mutants at highest), 3 days, F-Luc activity normalized to mRNA, three independent experiments. Here is the method: S2 cells were transfected in 6-well plates using Effectene transfection reagent (Qiagen) according to the manufacturers protocol. The transfection mixtures contained: 0.1 μg of F-Luc reporter plasmid (F-Luc-V5), 0.3 μg of control RNA reporter, and increasing amounts of plasmids expressing HA-CUP (fragment 1–402; 0.05–0.2 μg) and HA-Thor (full length, 0.1–0.5 μg). The plasmids expressing the corresponding mutants or the HA peptide control were transfected at the highest concentration. In all the experiments, the cells were collected three days after transfection. The F-Luc activity was measured using the Dual-Luciferase reporter assay system (Promega). The northern blotting was performed as previously described. The F-Luc mRNA levels were determined by northern blotting and were normalized to those of the control RNA. The normalized F-Luc mRNA levels were then used to normalize the F-Luc activity, to obtain translation efficiencies.

B1: eIF4G peptide (residues 578–650) fused C-terminally to GB1 (domain or fragment, Drosophila melanogaster, UniProt O61380 578-650, looked up)
chain: PETTLNDKQDSTDLKVKVSAKISSIINYNEGQWSPNNPSGKKQYDREQLLQLREVKASRIQPEVKNVSILPQP
notes: eIF4G, Drosophila melanogaster, residues 578–650 (methods and legends); source: E. coli BL21 Star (DE3), purified (amylose, TEV cleavage, anion exchange, SEC); not shown: MBP, N-terminal, cleaved; GB1, C-terminal, kept
In the case of B1, in assay [1], the Kd came out at 0.04 µM, the dH is -67.95 ± 0.167 kJ/mol and the “stoichiometry N” value came to 1.03 ± 0.01. Moreover, in assay [2], the Kd is 0.017 µM, the dH was -77.4 ± 8.37 kJ/mol and the “stoichiometry N” value was 0.99 ± 0.08. Further, the “time to 50% dissociation of prebound GST-eIF4G (tenfold molar excess of competitor)” value in assay [3] was found to be 4 h.

B2: CUP C+NC peptide fused C-terminally to GB1 (domain or fragment, Drosophila melanogaster)
chain: STGIHKPGSLRAPKAVRPTTAPVVSSKPVKSYTRSRLMDIRNGMFNALMHRSKESFVMPRIATCDDIELEGRLRRMNIWRTSDGTRFRTRSTTANLNMNNNNNNECMPAFFKNKNKPNLISDESIIQSQP
notes: CUP, Drosophila melanogaster, canonical and non-canonical 4E-BMs; source: E. coli BL21 Star (DE3), purified (amylose, HRV3C cleavage, SEC); not shown: MBP, N-terminal, cleaved; GB1, C-terminal, kept
On to B2, for which, in assay [1], the Kd was 0.05 µM, the dH was -77.8 ± 2.93 kJ/mol and the “stoichiometry N” value worked out at 0.98 ± 0.01. Further, in assay [2], binding was put at a Kd of 0.0091 µM, the dH is -144 ± 1.46 kJ/mol and the “stoichiometry N” value worked out at 1.05 ± 0.02. Besides, in assay [3], the “time to 50% dissociation of prebound GST-eIF4G (fivefold molar excess of competitor)” value stood at 2.5 ± 0.5 min.

For the molecule TKLIYERAFMKNLRGSPLSQTPPSNVPSCLLRGT (domain or fragment) [Thor C+NC peptide fused C-terminally to GB1], in assay [1], the Kd stood at 0.47 µM, the dH is -31.8 ± 1.26 kJ/mol and the “stoichiometry N” value amounted to 0.97 ± 0.01. For the same molecule, in assay [2], the Kd is 0.0014 µM, the dH is -70.3 ± 4.18 kJ/mol and the “stoichiometry N” value came to 0.95 ± 0.02. Also, the “half-life of the eIF4E–eIF4G complexes (tenfold molar excess of competitor)” value in assay [3] turned out to be 37 ± 9 min.

B3: CUP N-terminal fragment: CUP residues 1–402 (protein, UniProt Q9VMA3 1-402, looked up, fragment)
chain: MQMAEAEQENGAGALKIATNAGATDRPAHQQLPLPVEDQQDEVLTPAEKGKFEYPPPPPPPTPVQAPLATKATALNASQEHDDDEANSEKWEDPCAPPPPPPLPTSAFLATGLGYLKLPAFKLKDALEKAITKLEANKRTLKASPESSRSIKNKNVVALEMLPRRSNPETIGDGSMLASTSTAVMLQTKKPAVIVEMERRCKIINLLAKQNQILESISGEAIPMHGPSKHLHEDEGLTLQVLSARASTPYTQPSSMLSCTAVSCDLEHDSPRKQVASKEAVPEQQSSQVQQKRPPSTGIHKPGSLRAPKAVRPTTAPVVSSKPVKSYTRSRLMDIRNGMFNALMHRSKESFVMPRIATCDDIELEGRLRRMNIWRTSDGTRFRTRSTTANLNMNNNNNNECM
modifications: HA tag
On to B3, for which the “repression of F-Luc reporter expression (in words)” value in assay [4] is “inhibited the expression of the F-Luc reporter in a dose-dependent manner”.

For RYSKVDLLALRYEGKSRQRPQCSTRLELQTLGFWKI (domain or fragment) [4E-T C+NC peptide fused C-terminally to GB1], in assay [1], the Kd was found to be 0.0088 µM, the dH is -54 ± 1.26 kJ/mol and the “stoichiometry N” value was found to be 1.03 ± 0.04. Also, in assay [2], the equilibrium dissociation constant (Kd) worked out at 0.0056 µM, the dH is -95.4 ± 12.6 kJ/mol and the “stoichiometry N” value worked out at 0.95 ± 0.01. Also, the “time to 50% dissociation of prebound GST-eIF4G (fivefold molar excess of competitor)” value in assay [3] came to 22 min.
